Source: paper PMC12520543, “An Apple Susceptibility‐Related LRR Receptor‐Like Kinase MdRLKT21 Activates Plant Immunity by Hijacking a Trans‐Kingdom Fungal microRNA‐Like RNA” (Advanced Science, 2025)

Target: T1, GST-MdRFP1-His (apple (M. domestica), labeled with the Monolith NT Protein Labeling Kit RED)
T1 construct: MdRFP1, apple C3HC4-type RING finger protein 1, GenBank XP_017184215.2; Vector pGEX-6P-1; The results name GST-MdRFP1-His for the MST; the MST methods say only 'MdRFP1 was purified and labeled'; also called labeled MdRFP1; source: E. coli BL21 (DE3), purified (glutathione agarose and HisPur Ni-NTA resin are named for the set of recombinant proteins); not shown: GST, N-terminal, kept; His, …
T1 sequence (main, as listed by the source): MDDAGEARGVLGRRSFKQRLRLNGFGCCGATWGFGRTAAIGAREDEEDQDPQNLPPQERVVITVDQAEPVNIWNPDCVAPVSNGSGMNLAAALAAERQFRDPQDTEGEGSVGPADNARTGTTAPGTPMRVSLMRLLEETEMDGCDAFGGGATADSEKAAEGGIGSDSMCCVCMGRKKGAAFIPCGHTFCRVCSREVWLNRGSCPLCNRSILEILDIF
Assay: MST; labeled MdRFP1 (Monolith NT Protein Labeling Kit RED) incubated with a gradient dilution of MdRLKT21-KD for 30 min at RT; standard treated capillaries; Monolith NT.115
Settings: both partners purified

Kd: 14 ± 4.24 nM
B1: GST-MdRLKT21-KD (domain or fragment)
chain: RVRSRAKEGKTGKEKVVKEVAEVVVVEEGEGQNGKFVVLDEGFGLDLEDLLRASAYVVGKSRSGITYRVVAGSGGKGPGAAPSVVAVRRLSEGDATWRLKEFEAEVEAIGKVVHPNIVRLRAYYYASDEKLLVTDFIRNGSLYNALHGGPSNSLPPLPWTARLKIAQGTARGLMYIHEHSTRKYVHGNIKSTKILLNDDLQPYISGFGLARLMLGTSKFTTSASRRQNSNESIVASGLVVPTSSTIYLAPEARISRSKFTQKCDVYSFGIVLLEILTGRLPDEGLENGGKGLESLVRKTFRDERPLSEIIDPALLQEVYAKKQVVEAFHIALNCTELDPELRPRMKTVSESLDRLKLQC
